Two sequences from PMC3544828 can be followed below.

Data set [1] has as its target T1, CcpA (Staphylococcus aureus COL) (UniProt Q5HF38).
T1 sequence: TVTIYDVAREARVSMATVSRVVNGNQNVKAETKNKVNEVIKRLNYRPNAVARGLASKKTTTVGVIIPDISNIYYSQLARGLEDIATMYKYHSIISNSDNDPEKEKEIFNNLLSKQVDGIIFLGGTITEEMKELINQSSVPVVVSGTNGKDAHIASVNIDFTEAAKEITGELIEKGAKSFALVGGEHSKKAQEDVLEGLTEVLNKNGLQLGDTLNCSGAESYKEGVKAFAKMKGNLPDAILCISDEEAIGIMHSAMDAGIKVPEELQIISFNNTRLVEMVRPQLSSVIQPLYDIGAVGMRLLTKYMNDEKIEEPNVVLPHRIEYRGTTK
Kind of data set: EMSA. The settings on record: Room temperature, 15 min, 250 fmol each of specific and non-specific probe; protein stock in 10 mM Tris-HCl pH 7.5, 100 mM NaCl, 10% glycerol (binding buffer …).

Data set [2] has as its target T2, Rex (Staphylococcus aureus COL) (UniProt Q5HEF5).
T2 sequence: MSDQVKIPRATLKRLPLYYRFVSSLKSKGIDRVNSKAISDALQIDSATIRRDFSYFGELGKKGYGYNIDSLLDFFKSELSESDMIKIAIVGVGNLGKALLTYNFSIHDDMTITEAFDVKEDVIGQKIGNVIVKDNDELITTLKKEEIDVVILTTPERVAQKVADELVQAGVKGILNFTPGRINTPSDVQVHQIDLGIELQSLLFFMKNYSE
Kind of data set: EMSA. The following applies: Room temperature, 15 min, 250 fmol each of specific and non-specific probe; protein stock in 10 mM Tris-HCl pH 7.5, 100 mM NaCl, 10% glycerol (binding buffer …). A general note: A gel shift assay detects complexes by their altered migration in electrophoresis.

As to “CGCATAACTTAAAAGGTCATGTGTCATCCGCTTTTAAGTTTGTGATTTATTTCACATATAAAATGTAACATGCATTAAGTACTGGGTCAATATTAAATTGTGATTTATTTCACATTTTATTTTAATTTTTACACCTTTTTAATTTGTATACGATTACATCTTAGATGTCTTTAGTCTTCGTACTTCGCCAGTGATTATTTACAC (double strand) [Pldh1 promoter fragment]”, the binding result is recorded as “no binding” in data set [1] and “binds” in data set [2]. For the sequence “CTCCCCTTTTCATCATTTATAACTATTATACATGAAACATTATCCAAATAATTACATTAGTTTTCAAAGCAGATACTTTTCCACCAAAAAAGATGAAATAATCACTAAGTTTCATTAAATTTGTCTATTTTGAAAACCCTTACATTTATAATGACATAATTACTTAAATGATTACAAGCAAAAGAATTGATAATTTTACACTTAATC (double strand) [ProcD2 promoter fragment]”, the binding entry in data set [1] is “binds”.
